Assay results taken from article doi:10.1101/2021.09.02.458805 (bioRxiv, 2021).

T1: Cft1 (S. cerevisiae, UniProt Q06632 1-1357)
T1 sequence (looked up): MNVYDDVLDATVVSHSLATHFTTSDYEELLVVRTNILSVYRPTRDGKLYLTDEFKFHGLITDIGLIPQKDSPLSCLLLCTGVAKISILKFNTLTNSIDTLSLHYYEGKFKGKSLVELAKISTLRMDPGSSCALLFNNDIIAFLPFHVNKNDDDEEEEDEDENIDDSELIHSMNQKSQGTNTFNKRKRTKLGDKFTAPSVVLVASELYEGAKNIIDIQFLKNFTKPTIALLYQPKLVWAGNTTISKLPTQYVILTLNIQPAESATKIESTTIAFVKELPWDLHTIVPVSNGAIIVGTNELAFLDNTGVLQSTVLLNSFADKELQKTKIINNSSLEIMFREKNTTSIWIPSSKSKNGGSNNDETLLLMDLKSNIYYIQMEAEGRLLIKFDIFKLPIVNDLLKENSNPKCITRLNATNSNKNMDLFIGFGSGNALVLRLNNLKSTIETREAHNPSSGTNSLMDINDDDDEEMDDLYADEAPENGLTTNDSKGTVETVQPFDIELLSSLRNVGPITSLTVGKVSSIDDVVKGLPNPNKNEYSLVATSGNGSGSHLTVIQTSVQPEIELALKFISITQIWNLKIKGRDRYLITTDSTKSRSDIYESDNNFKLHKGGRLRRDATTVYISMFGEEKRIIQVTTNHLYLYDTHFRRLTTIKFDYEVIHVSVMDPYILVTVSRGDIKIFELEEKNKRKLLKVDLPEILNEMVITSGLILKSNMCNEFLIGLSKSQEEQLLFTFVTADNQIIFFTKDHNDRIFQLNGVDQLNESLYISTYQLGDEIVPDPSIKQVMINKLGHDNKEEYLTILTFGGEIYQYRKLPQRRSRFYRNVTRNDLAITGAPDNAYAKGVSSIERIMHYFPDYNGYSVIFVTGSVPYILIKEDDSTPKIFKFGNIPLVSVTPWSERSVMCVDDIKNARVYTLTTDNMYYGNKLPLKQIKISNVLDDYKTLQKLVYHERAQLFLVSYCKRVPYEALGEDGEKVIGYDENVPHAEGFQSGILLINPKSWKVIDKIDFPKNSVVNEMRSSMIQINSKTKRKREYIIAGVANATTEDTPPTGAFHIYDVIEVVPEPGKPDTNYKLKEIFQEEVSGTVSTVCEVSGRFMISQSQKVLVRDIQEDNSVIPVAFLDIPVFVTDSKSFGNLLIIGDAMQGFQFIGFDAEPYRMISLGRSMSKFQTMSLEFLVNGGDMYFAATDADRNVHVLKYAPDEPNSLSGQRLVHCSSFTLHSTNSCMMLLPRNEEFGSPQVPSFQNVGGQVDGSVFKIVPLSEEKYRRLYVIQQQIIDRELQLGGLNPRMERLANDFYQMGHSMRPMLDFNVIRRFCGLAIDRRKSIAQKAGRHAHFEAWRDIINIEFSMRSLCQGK

B1: Cft2(S), residues 1-720 (domain or fragment, S. cerevisiae, UniProt Q12102 1-720, looked up)
chain: MTYKYNCCDDGSGTTVGSVVRFDNVTLLIDPGWNPSKVSYEQCIKYWEKVIPEIDVIILSQPTIECLGAHSLLYYNFTSHFISRIQVYATLPVINLGRVSTIDSYASAGVIGPYDTNKLDLEDIEISFDHIVPLKYSQLVDLRSRYDGLTLLAYNAGVCPGGSIWCISTYSEKLVYAKRWNHTRDNILNAASILDATGKPLSTLMRPSAIITTLDRFGSSQPFKKRSKIFKDTLKKGLSSDGSVIIPVDMSGKFLDLFTQVHELLFESTKINAHTQVPVLILSYARGRTLTYAKSMLEWLSPSLLKTWENRNNTSPFEIGSRIKIIAPNELSKYPGSKICFVSEVGALINEVIIKVGNSEKTTLILTKPSFECASSLDKILEIVEQDERNWKTFPEDGKSFLCDNYISIDTIKEEPLSKEETEAFKVQLKEKKRDRNKKILLVKRESKKLANGNAIIDDTNGERAMRNQDILVENVNGVPPIDHIMGGDEDDDEEEENDNLLNLLKDNSEKSAAKKNTEVPVDIIIQPSAASKHKMFPFNPAKIKKDDYGTVVDFTMFLPDDSDNVNQNSRKRPLKDGAKTTSPVNEEDNKNEEEDGYNMSDPISKRSKHRASRYSGFSGTGEAENFDNLDYLKIDKTLSKRTISTVNVQLKCSVVILNLQSLVDQRSASIIWPSLKSRKIVLSAPKQIQNEEITAKLIKKNIEVVNMPLNKIVEFSTTI
B2: Yth1 (natural protein, S. cerevisiae, UniProt Q06102 1-208, looked up)
chain: MSLIHPDTAKYPFKFEPFLRQEYSFSLDPDRPICEFYNSREGPKSCPRGPLCPKKHVLPIFQNKIVCRHWLRGLCKKNDQCEYLHEYNLRKMPECVFFSKNGYCTQSPDCQYLHIDPASKIPKCENYEMGFCPLGSSCPRRHIKKVFCQRYMTGFCPLGKDECDMEHPQFIIPDEGSKLRIKRDDEINTRKMDEEKERRLNAIINGEV
B3: Pfs2 with SII tag, as subunit of the purified polymerase module (natural protein, S. cerevisiae, UniProt P42841 1-465, looked up)
chain: MDGHNQNQYQNQNQIQQSQQPPLKKYVTQRRSVDVSSPYINLYYNRRHGLPNLVVEPETSYTIDIMPPNAYRGRDRVINLPSKFTHLSSNKVKHVIPAIQWTPEGRRLVVATYSGEFSLWNASSFTFETLMQAHDSAVTTMKYSHDSDWMISGDADGMIKIWQPNFSMVKEIDAAHTESIRDMAFSSNDSKFVTCSDDNILKIWNFSNGKQERVLSGHHWDVKSCDWHPEMGLIASASKDNLVKLWDPRSGNCISSILKFKHTVLKTRFQPTKGNLLMAISKDKSCRVFDIRYSMKELMCVRDETDYMTLEWHPINESMFTLACYDGSLKHFDLLQNLNEPILTIPYAHDKCITSLSYNPVGHIFATAAKDRTIRFWTRARPIDPNAYDDPTYNNKKINGWFFGINNDINAVREKSEFGAAPPPPATLEPHALPNMNGFINKKPRQEIPGIDSNIKSSTLPGLSI

Legend:
[1] = biological target: T1, Cft1; assay: cryo-EM structure
[2] = biological target: B1; assay: cross-linking
[3] = biological target: B1; assay: cryo-EM structure

Binder: B1
binding result [1]: binds

Binder: B2
binding result [2]: binds

Binder: B3
binding result [3]: binds
